Data on one molecule can be found in patent US20020177177A1 (PROLIFIX, published 2002).

For the test, the target named is T1, E. coli-produced 6X histidine-tagged cyclin D1 (UniProt P24385 1-295, limits assumed).
T1 construct: also called His-cyclin D1; His-D1; not shown: 6X histidine tag
Description: GST pull-down on glutathione-agarose, anti-cyclin D1 Western blot. How it is done: To ask which domain or motif of SRC-1 is involved in cyclin D1 binding, we generated a series a GST-SRC1 deletion mutants. […] In the in vitro binding assay, the series of GST-containing proteins were incubated with bacterially expressed His-tagged cyclin D1 and immobilized on glutathione-agarose. Cyclin D1 binding was detected by Western blot analysis using anti-cyclin D1 antibody. Binding was not detected to GST alone.
(In western blotting, separated proteins are transferred to a membrane and probed.)

T1 sequence (P24385 whole entry): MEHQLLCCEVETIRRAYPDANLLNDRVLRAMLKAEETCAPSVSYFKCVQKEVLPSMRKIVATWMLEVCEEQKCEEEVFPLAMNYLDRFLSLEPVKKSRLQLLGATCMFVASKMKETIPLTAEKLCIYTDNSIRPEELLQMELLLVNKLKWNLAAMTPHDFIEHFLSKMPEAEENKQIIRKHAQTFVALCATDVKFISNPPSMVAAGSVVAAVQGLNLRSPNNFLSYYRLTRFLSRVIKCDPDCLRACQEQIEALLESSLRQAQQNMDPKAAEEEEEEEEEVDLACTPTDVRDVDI

B1: GST-SRC1 361-568 (other, human, UniProt Q15788 361-568, looked up)
chain: IHIIDREHSGLSPQDDTNSGMSIPRVNPSVNPSISPAHGVARSSTLPPSNSNMVSTRINRQQSSDLHSSSHSNSSNSQGSFGCSPGSQIVANVALNQGQASSQSSNPSLNLNNSPMEGTGISLAQFMSPRRQVTSGLATRPRMPNNSFPPNISTLSSPVGMTSSACNNNNRSYSNIPVTSLQGMNEGPNNSVGFSASSPVLRQMSSQN
notes: not shown: glutathione-S-transferase (GST) fusion partner
Turning to B1, the binding result is “no binding”.
